Consider seven molecules from US20170218055A1 (UNIVERSITY OF CHICAGO, published 2017).

Test [1] has as its target T1, CKKAA immunoglobulin binding domain of SpAKKAA (Staphylococcus aureus, UniProt A0A0H3K686 214-323).
T1 construct: the construct is said to span residues 234-291 of mature SpA and its limits may differ from the entry; not shown: N-terminal six histidyl tag (pET15b)
The test is described as follows: ELISA, antigen-coated plate, mAb titrated. (In general: ELISA stands for enzyme-linked immunosorbent assay.)

For test [2], the target named is T2, EKKAA immunoglobulin binding domain of SpAKKAA (Staphylococcus aureus, UniProt A0A0H3K686 37-92).
T2 construct: also called SpA-EKKAA; E domain; not shown: N-terminal six histidyl tag (pET15b)
The test is described as follows: ELISA, antigen-coated plate, mAb titrated.

The target in test [3] is T3, DKKAA immunoglobulin binding domain of SpAKKAA (Staphylococcus aureus, UniProt A0A0H3K686 96-149).
T3 construct: the construct is said to span residues 57-117 of mature SpA (61 residues), so its limits differ from the entry; not shown: N-terminal six histidyl tag (pET15b)
The experiment in a line: ELISA, antigen-coated plate, mAb titrated.

Test [4] concerns the target T4, BKKAA immunoglobulin binding domain of SpAKKAA (Staphylococcus aureus, UniProt A0A0H3K686 214-265).
T4 construct: not shown: N-terminal six histidyl tag (pET15b)
The test is described as follows: ELISA, antigen-coated plate, mAb titrated.

Test [5] deals with T5, AKKAA immunoglobulin binding domain of SpAKKAA (Staphylococcus aureus, UniProt A0A0H3K686 156-207).
T5 construct: the construct is said to span residues 118-175 of mature SpA and its limits may differ from the entry; not shown: N-terminal six histidyl tag (pET15b)
The test is described as follows: ELISA, antigen-coated plate, mAb titrated.

The target of test [6] is T6, SpAKKAA (non-toxigenic staphylococcal protein A variant) (Staphylococcus aureus, UniProt A0A0H3K686 37-327).
T6 construct: The four substitutions are made in each of the five domains (20 in all); Purified from E. coli; also called non-toxigenic protein A
The test is described as follows: ELISA, antigen-coated plate, mAb titrated.

Test [7] deals with T7, peptide H2 (helix 2 of the EKKAA IgBD).
T7 construct: Synthetic linear peptide
T7 peptide: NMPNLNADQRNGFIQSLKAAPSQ
The test is described as follows: ELISA, antigen-coated plate, mAb titrated.

The target of test [8] is T8, peptide H1+2 (helices 1+2 of the EKKAA IgBD).
T8 construct: Synthetic linear peptide; also called helix 1+2 peptide
The test is described as follows: ELISA, antigen-coated plate, mAb titrated.

For test [9], the target named is T9, peptide H1 (helix 1 of the EKKAA IgBD).
T9 construct: Synthetic linear peptide, free NH2 and COOH ends as printed
T9 peptide: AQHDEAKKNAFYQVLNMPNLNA
The experiment in a line: ELISA, antigen-coated plate, mAb titrated.

The target in test [10] is T10, peptide H3 (helix 3 of the EKKAA IgBD).
T10 construct: Synthetic linear peptide
T10 peptide: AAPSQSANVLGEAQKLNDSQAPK
The experiment in a line: ELISA, antigen-coated plate, mAb titrated.

Test [11] addresses T2, EKKAA immunoglobulin binding domain of …. The test is described as follows: ELISA, antigen-coated plate.

B1: mAb 7E2 (antibody, V domains shown)
VH: QIQLVQSGPELKKPGETVKISCKASGYTFTDYSVHWVKQAPGKGLKWMAWINTATGEPTFADDFKGRFAFSLETSARTAYLQINNLKNEDTATYFCAPQLTGPFAYWGHGTLVTVSA
VL: DIQMTQSPASLSASVGETVTITCRASENIHNYLAWYQQKQGKSPQLLVYNAKTLTDGVPSRFSGSGSGTQFSLKINSLQAGDFGSYYCQHSWSIPYTFGGGTRLQIR
notes: Mouse IgG1 hybridoma mAb
As for B1, the Ka is 2.8e+08 M⁻¹ in [1]; 2.9e+08 M⁻¹ in test [2]; 3e+08 M⁻¹ in test [3]; 3.2e+08 M⁻¹ in test [4]; 3.6e+08 M⁻¹ in test [5]; 3.1e+08 M⁻¹ in [6].

B2: mAb 6D11 (antibody, V domains shown)
VH: QVQLQQSGAELVRPGTSVKVSCKASGNAFTNYLIEWIKQRPGQGLEWIGVINPGSGITNYNEKFKGKATLTADKSSNTAYMQLSSLSSDDSAVYFCSGSANWFAYWGQGTLVTVSA
VL: DIVLTQSPASLAVSLGQRASISCRASESVEYSGASLMQWYQHKPGQPPKLLIYAASNVESGVPVRFSGSGSGTDFSLNIHPVEEDDIAMYFCQQSRKVPSTFGGGTKLEIK
notes: Mouse IgG2a hybridoma mAb
Consider B2, for which the Ka in test [7] was 1e+07 M⁻¹; in test [1] it was 4.75e+09 M⁻¹; in test [8] it was 5.22e+09 M⁻¹; in test [3], 2.42e+09 M⁻¹; in [9], 2.7e+08 M⁻¹.

B3: mAb 3A6 (antibody, V domains shown)
VH: QIQLVQSGPELKKPGETVKISCKASGYNFTDYSMHWVKQAPGKGLKWVGWINTETAESTYADDFKGRFAFSLETSASTAYLQINSLKDEDTATFFCAHFDCWGQGTTLTVSS
VL: DVVMTQISLSLPVTLGDQASISCRASQSLVHSNGNTYLNWYLQKPGQSPKLLIHKVSNRFSGVPDRFSGSGSGTDFTLKISRVEAEDLGVYFCSQITYVPWTFGGGTKLEIK
notes: Mouse IgG1 hybridoma mAb
With B3, the Ka in test [1] is 4e+07 M⁻¹; in [10], 1e+07 M⁻¹; in test [2] it was 1.38e+09 M⁻¹; in [8], 4.4e+08 M⁻¹; in test [4], 6.4e+08 M⁻¹; in test [5] it was 2.05e+09 M⁻¹. Also, the Ka turned out to be 1.37e+09 M⁻¹ in test [6] and 6e+07 M⁻¹ in test [9].

B4: mAb 3D11 (antibody, V domains shown)
VH: QSGPELMKPGASVKISCKASGYSFTSYYMHWVKQSHGKSLEWIGYIDPFNGGTSYNQKFKGKATLTVDKSSSTAYMHLSSLTSEDSAVYYCARYGYDGTFYAMDYWGQGTSVTVSS
VL: RIVLTQSPAITAASLGQKVTITCSASSSVSYMHWYQQKSGTSPKPWIYEISKLASGVPARFSGSGSGTSYSLTISSMEAEDAAIYYCQQWSYPFTFGSGTKLEIK
notes: Mouse IgG2b hybridoma mAb raised against SpAKKAA; also called 3D11-HRP; HRP-3D11
On to B4, for which the Ka stood at 3.6e+09 M⁻¹ in test [1]; 3.92e+09 M⁻¹ in [4]; 8.7e+08 M⁻¹ in [5]; 3.93e+09 M⁻¹ in test [6]; 2e+07 M⁻¹ in test [9]. For the same molecule, the binding result in test [11] is recorded as “no binding”.

B5: mAb 8E2 (antibody, V domains shown)
VH: KVQLQQSGAGLVKPGASVKLSCKASGYTFTEYSIHWVKQSSGQGLEWIGWFYPGSGYIKYNEKFKDKATLTADKSSSTVYMEFSRLTSEDSAVYFCARHGYGNYVGYAMDYWGQGTSVTVSS
VL: DIQMTQSPASLSASVGETVTITCRASEIIYSYLAWYQQKQGKSPQLLVYFAKTLAEGVPSRFSGSGSGTQFSLKINSLQPEDFGIYYCQHHYGTPYTFGGGTKLEIK
notes: Mouse IgG1 hybridoma mAb
As to B5, the Ka was 1.26e+09 M⁻¹ in test [1]; 1.4e+09 M⁻¹ in test [2]; 2.9e+08 M⁻¹ in test [8]; 1.51e+09 M⁻¹ in test [3]; 1.14e+09 M⁻¹ in test [4]; 1.52e+09 M⁻¹ in test [5]. The molecule further returned a Ka in test [6] of 1.56e+09 M⁻¹.

B6: mAb 5A10 (antibody, V domains shown)
VH: EVKLVESGGGLVKPGGSLKLSCAASGFAFSNYDMSWVRQTPEKRLEWVATISSGGTYPYYPDSVKGRFTISRDNAKNTLYLQLSSLRSEDTALYYCARGGFLITTRDYYAMDYWGQGTSVTVSS
VL: TIVLTQSPAIMSASPGEKVTMTCSASSSVSYMYWYQQKPGSSPRLLIYDTSNLASGVPVRFSGSGSGTSYSLTISRMEAEDAATYYCQQWSSYPPTFGGGTKLEIK
notes: Mouse IgG1 hybridoma mAb raised against SpAKKAA; also called 5A10-HRP; HRP-5A10
For B6, the Ka in test [1] stood at 1.01e+10 M⁻¹; in test [2], 9.4e+09 M⁻¹; in [3], 8.19e+09 M⁻¹; in test [4], 7.03e+09 M⁻¹; in [5], 8.08e+09 M⁻¹; in test [6] it was 8.47e+09 M⁻¹.

B7: mAb 2F2 (antibody, V domains shown)
VH: VKLVESGGDLVKPGGSLKLSCAASRFTFSSYVMSWVRQTPEKRLEWVASIGSGGTTYYPDTVKGRFTISRDNARNILYLQMSSLRSDDTAMYYCTRGRGYGFAWYFDVWGAGTTVTVSS
VL: B6 VL
notes: Mouse IgG2b hybridoma mAb
As for B7, the Ka was 1.8e+09 M⁻¹ in test [1]; 1.72e+09 M⁻¹ in [2]; 1.76e+09 M⁻¹ in test [3]; 1.13e+09 M⁻¹ in test [4]; 1.37e+09 M⁻¹ in [5]; 1.9e+09 M⁻¹ in test [6].
